Assay: soluble on expression in E. coli; label from the status in PepcDB or PDB records

| Sequence | soluble on expression in E. coli |
| --- | --- |
| GKKAVINDSNTPLHLLQPAYQGTYGDLTPEQVKKDIDRVFAYIDKETPARVVDKNTGKVITDYTAMGDEAQLERGAFRLASYEWGVTYSALIAAAETTGDKRYTDYVQNRFRFLAEVAPHFKRVYEEKGKTDSQLLQILTPHALDDAGAVCTAMIKLRLKDESLPVDGLIQNYFDFIINKEYRLADGTFARNRPQRNTLWLDDMFMGIPAVAQMSRYDKEAKNKYLAEAVKQFLQFADRMFIPEKGLYRHGWVESSTDHPAFCWARANGWALLTACELLDVLPEDYPQRPKVMDYFRAHVRGVTALQSGEGFWHQLLDCNDSYLETSATAIYVYCLAHAINKGWIDAIAYGPVAQLGWHAVAGKINEEGQVEGTCVGTGMAFDPAFYYYRPVNVYAAHGYGPVLWAGAEMIRLLNTQHPQMNDSAVQYYQEKQKTTAPIFAVDSE | soluble |
| GKKCFLTVRGNFSWNEDKIIENDDPRVQYPWMEKRGTNVNGRWGWIAEGLFTSEEEIMDHAKQFGEGHPGQISKVGDIKYKDLNGDGVIDDYDKCLIGQGDVPKIYYGFGADLQLGDFSVGALFAGNAKADRCLGGNAMYPFNDGSGITNLFANITDRWSADNPTNQDVFYPRLHHGNNANQNNMKTSTWWQKDVSFLRLKQLTIAYQLPKKLINQTFLKSARIYVMGTNLLTFSKFKLWDPELNTNNGTAYPNVRTYSVGVNVSF | not soluble |
| GKLDATLRAIVHTAAELVDARYGALGVRGYDHRLVEFVYEGIDEETRHLIGSLPEGRGVLGALIEEPKPIRLDDISRHPASVGFPLHHPPMRTFLGVPVRIRDEVFGNLYLTEKADGQPFSDDDEVLVQALAAAAGIAVDNARLFEESR | soluble |
| GKLDEFEAWMRTITKLDIVSLMDFNWGKGGLIKGEKVMNRLGDILGDLHIEDLSIPYTAVAADISNEKEVWLQKGSLLQAIRASISLPLYLMPIEFNGKTLIDGGVLNPVPIA | not soluble |
| GKLVRRVLSINEVLGYNPDKGGISFIEAFSWDPVTDTHVFSAMGSSYILENKIATRLGIPGKKKKAIYDEIEKRAKILERLSDEGIVNYWEFFNTIAKITKSGMLRIQ | not soluble |
| GKSLKVSSPRPGLLERLSATIQRNLPGHSMLDRQLTTDGKKNQESRFSFSMIKDRIVHFAVSTKLGSVRDSASKHGGEVTFKFAQTKGAFLDQIMKHQDTSGGVCESISAHWISAHAKGESVFNQLYVGGQKGQFHIDSLVSIKQLQMDGLDPYAEQSQITESWLRENGIQPRSPLEVSGETGSKGTKDLLNAILDTGDKGSGYKKISFEGQMAGHTVAAYVDDQKGVTFFDPNFGEFSFPDKTSFSNWFSQDFWSKSMYNKEIGLGQNFYVSNFEP | not soluble |
| GLCDGHMHIESGMLTPAEFAAAVIPHGTTTMFTDPHEIANVLGLAGVRMMHDEALMQPVNIFTQMPSCAPSAPGLETTGYEITPEDVAEAMTWPGIIGLGEMMNFPGVTNADPKMLAEIAATQRAGKTVGGHYASPDLGPAFAAYVAGGPADDHEGTCEADAIARVRQGMRSMMRLGSAWYDVETQITAVTEKGLDPRNFILCTDDCHSATLVNDGHMNRVVRHAIACGCDPLIALQMATINTATHFGLERELGSTAPGRRADVILTSDLRDLPIELVIARGQVVAENGKIAVDCPHYDWPD | not soluble |
| GMARRDISGAVDFAYLEGFAAGDFAVVDEVLALFREQAALWAPMLDPTHPGWKDAVHTVKGAARGVGAFNLGEVCERCEAGQESLEGVRTALDAALLDIAAYAHEQALRSLKG | soluble |
| GMASSFLEEVDRLITLSGITFHASGTGTPELIKIYQDALGNEFPETYKLFLEKYGTLTFNGVSFYGISKRGLSAASIPDVKFATEQARTFGDINKEMIMIKNSGYGSIFSIDTSIIGSEGEPVIVETNLSFKDNTEKKVVANSFGEFLLEEIELSLTDLG | soluble |
| GMASSGTEHDAMRARLVDVAQAIVEERGGAGLTLSELAARAGISQANLSRYFETREDLMEAIADYWFHPMVEIMEDVLASDLPPRRKMYEFFARRFVVMRRKWEADPVKLQTYIEVGNDYFEQVRSYIDLADHYLGEIIGEAMSDGAFSGLEVDETISLVNQMCAPYCALNTMTTFMERLSEDKLARIVDAVFDGLSAQDRGARSLTGLRAA | soluble |
| GMAYEQFAYVYDELMQDVPYPEWVAWVLEQVEPGKRIADIGCGTGTATLLLADHYEVTGVDLSEEMLEIAQEKAMETNRHVDFWVQDMRELELPEPVDAITILCDSLNYLQTEADVKQTFDSAARLLTDGGKLLFDVHSPYKMETLFNGKTYATHAEQSSYIWFADPGEEPLSVVHELTFFIEGEDGRYDRVDETHHQRTYPPEQYITWLREAGFRVCAVTGDFKSDAPTETAERIFFVAEKI | soluble |
| GMDDLSEFVDQVPLLDHHCHFLIDGKVPNRDDRLAQVSTEADKDYPLADTKNRLAYHGFLALAKEFALDANNPLAAMNDPGYATYNHRIFGHFHFKELLIDTGFVPDDPILDLDQTAELVGIPVKAIYRLETHAEDFMLEHDNFAAWWQAFSNDVKQAKAHGFVGFKSIAAYRVGLHLEPVNVIEAAAGFDTWKHSGEKRLTSKPLIDYMLYHVAPFIIAQDMPLQFHVGYGDADTDMYLGNPLLMRDYLKAFTKKGLKVVLLHCYPYHREAGYLASVFPNLYFDISLLDNLGPSGASRVFNEAVELAPYTRILFASDASTYPEMYGLAARQFKQALVAHFNQLPFVDLAQKKAWINAICWQTSAKLYHQERELRV | soluble |
| GMDEKPAITKIISGGQTGADRAALDFAIKHHIPYGGWVPKGRLAEGGRVPETYQLQEMPTSDYSKRTEKNVLDSDGTLIISHGILKGGSALTEFFAEQYKKPCLHIDLDRISIEDAATLINSWTVSHHIQVLNIAGPRAGKDPEIYQATMDLLEVFLA | soluble |
| GMGIHQYFQSLSDLENIYRCPGKFKYQEHSVAEHSYKVTSIAQFFGAVEEDAGNEVNWRALYEKALNHDYSELFIGDIKTPVKYATTELREMLSEVEESMTKNFISREIPATFQPIYRHLLKEGKDSTLEGKILAISDKVDLLYESFGEIQKGNPENIFVEIYSEALATIYEYREMASVKYFLKEILPDMLAEKGIEKTELPQLTTEITTKALRDE | soluble |
| GMKKIRFAAIGLAHNHIYDMCQQLIDAGAELAGVFESDSDNRAKFTSLFPSVPFAASAEQLITDASIDLIACAVIPCDRAELALRTLDAGKDFFTAKPPLTTLEQLDAVQRRVAETGRKFAVYFNERINVDSALFAGELVQRGEIGRVIQTMGVGPHRERGARPDWFYQKRQYGGILCDIGIHQIEQFLYFTGNTNARVVTSQTANYHHPHHPEFEDFGDAMLLGDNGATGYFRCDWFTPDGLSVWGDGRLTILGTEGYIEIRKYVDLTRGESNVVYLVNGKGEQRFTPAGSVERAFFPDFLRDCRERTENAMSQSHIFKATELSILAQQAANKIA | soluble |
| GMKLYKLLILDIDGTLRDEVYGIPESAKHAIRLCQKNHCSVVICTGRSMGTIQDDVLSLGVDGYIAGGGNYIQYHGELLYNQSFNQRLIKEVVCLLKKREVAFSIESQEKVFMNQKAKEIFETMNQLKGTNSCINKQHIQEKITYENNIEEYKSQDIHKICLWSNEKVFDEVKDILQDKMELAQRDISSQYYEIIQKDFHKGKAIKRLQERLGVTQKETICFGDGQNDIVMFQASDVTIAMKNSHQQLKDIATSICEDIFDNGIYKELKRRNII | soluble |
| GMKQDSIITLHPDDRSEQTAEIMRRFNDVFQLHDPAALPELIAEECVIENTVPAPDGARHAGRQACVQLWSAIATQPGTRFDLEETFVAGDRATIRWRYWMADGNSVRGVNLMRVQDGRIVEAMGYVKG | soluble |
| GMKTIDLADIQAFLYRESRLLDDKAWDAWLDCYRADAVFWMPSWDDADALVTDPQREISLIYYPNRQGLEDRVFRIKTERSSATVPDTRTSHNIANVERESADGDVHTVRFNWHTLSYRYKTVSSYFGMSRYAIDFSGDAPKIVSKYVVLKNDYINQLIDIYHI | soluble |
| GMMTHYSDNTLKVAHQGFEFFTQGLATGEWQKFLDMLTEDFTFWFPMGEFHGLNVGKERAKEFFTYVSESFHTGIQISSLDRVTSNETTVVFEFRDEGLFLGKPYKNRVAVSFDVRGDKICSYREYFGSDGKSN | soluble |
| GMNNIIVGMGEALWDVLPEGKKIGGAPANFAYHVSQFGFDSRVVSAVGNDELGDEIMEVFKEKQLKNQIERVDYPTGTVQVTLDDEGVPCYEIKEGVAWDNIPFTDELKRLALNTRAVCFGSLAQRNEVSRATINRFLDTMPDIDGQLKIFDINLRQDFYTKEVLRESFKRCNILKINDEELVTISRMFGYPGIDLQDKCWILLAKYNLKMLILTCGINGSYVFTPGVVSFQETPKVPVADTVGAGDSFTAAFCASILNGKSVPEAHKLAVEVSAYVCTQSGAMPELPVILKDRLL | soluble |
| GMNPFQNSFGGHIPQDVAGKQGENVIFIVYNLTDSPDTVDKVKDVCANFSAMIRSMRNRFPDMQFSCTMGFGADAWTRLFPDKGKPKELSTFSEIKGEKYTAVSTPGDLLFHIRAKQMGLCFEFASILDEKLKGAVVSVDETHGFRYMDGKAIIGFVDGTENPAVDENPYHFAVIGEEDADFAGGSYVFVQKYIHDMVAWNALPVEQQEKVIGRHKFNDVELSDEEKPGNAHNAVTNIGDDLKIVRANMPFANTSKGEYGTYFIGYASTFSTTRRMLENMFIGSPAGNTDRLLDFSTAITGTLFFVPSYDLLGELGE | soluble |
| GMPIDTPTDASPADGSASDTVFFGIMSGLELGTFVPGQRLVETDLVAHFGVGRNSVREALQRLAAEGIVDLQRHRGAVIRRLSLQETLDVLDVAERMTGLLARAATRGSGNQPQVQALRASVQALVAAEKAQDGETFSNARRHFYRTLLEMGDNRELRRLFPTIHMPIVHAQHRLASLRQMRLDDYRRIATAVLAGEPDAAEAAGAAHVKNVRGAILDRQPA | soluble |
| GMPNFSKNEEVLFSAVNEIFEEKIPFNKIIGLKVRFISPEQVKLSFEMRDELIGNAIRRMLYGGVISSAIDMTAGLAAFMGFQEKMSGKPMEEKLAMIGRLSTMSLHVEYLRPGLGREFVCTGYNVRTGNKVAVIRTELMNDQDELIAVGSVSYILV | soluble |
| GMPPVWTLPRLYQHFQGAIDLELWTIPYYLTVLYSIKDPTTVPYRLIQAAVYQEMLHAQLVSNIANAYGYSPTLSAPEYVGTAVPHIDFDLDTPNPTSIFTPYSAELGPLDLTRVNTMCLIEYPEWRTQREPDLADDVTDYGSIGEFYDALRVGMEQLRGHVRGNQKQMDEFGPFYQNSPPLTVTESGDAGFLQALTLVDIIVDQGEGQTQPVETIPTEFQNTADGFQDAWPHFQRFDFIRRMPNWPGVYTGVTDPPAGSPGAEAQARLIADFAGFLDILNGMFSGGGAPPAFGVQMAKLGGDILSCWKLGAVPRYS | soluble |
| GMQGIAFQDAYPDDLSHCYGCGRNNEQGHQLKSYWRGEQTIAHFMPKPFHTAIPGFVYGGLIASLIDCHGTGSASAAAQRALEQAGEQLDEPPRFVTAALNIDYLAPTPMGVELELVGEIKEVKPRKVVVEIALSADGKLCARGHMVAVKMPETMAATSA | soluble |
| GMSAPEDWNSQVIQEFRANGGRVGGNFEGAPMVLVHHVGRKTGKAAVTPMMYLPSDDDPGTIYVFASKAGAASNPAWYYNLTTAGTAQVEVGTETYAVGVTEVTGEDRDRIYSEQARRYPGFADYEKKTAGIRTIPVLALTRT | soluble |

— the DeepSol protein solubility set
